{"source": "patent US20250066490A1", "about": "“ANTI-CD70 ANTIBODIES, CONJUGATES THEREOF AND METHODS OF USING THE SAME” (ProfoundBio US Co., priority 2021, published 2025)", "key": {"[1]": {"target": "T1, rat CD70 extra-cellular domain (ECD) (Rattus norvegicus, UniProt M0R613)", "T1 construct": "human, rat, or mouse CD70 extra-cellular domain (ECD) linked to His tag; His tag; purchased ACRO systems", "T1 sequence (M0R613 1-194)": "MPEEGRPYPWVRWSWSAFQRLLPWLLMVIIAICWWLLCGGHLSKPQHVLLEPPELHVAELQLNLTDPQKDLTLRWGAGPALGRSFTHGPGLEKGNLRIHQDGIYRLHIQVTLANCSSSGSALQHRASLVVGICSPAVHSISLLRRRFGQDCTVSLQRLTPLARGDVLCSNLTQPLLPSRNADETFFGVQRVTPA", "assay": "Biolayer interferometry (BLI), rat CD70", "type": "binding", "details": "for Response: *Response below range of quantification", "method": "(§1) Recombinant proteins consisting of human, rat, or mouse CD70 extra-cellular domain (ECD) linked to His tag was purchased (from ACRO systems). 69A7 and 2E7 (20 nM) were immobilized on anti-human IgG Fc biosensor tips (ForteBio). Binding assays using one concentration (100 nM) of recombinant protein in solution were performed using Octet RED (ForteBio). Association time was set at 180s and dissociation time was set at 300s. Binding affinity was calculated using ForteBio Data Acquisition 6.3 software. Affinity was derived by fitting the kinetic data to a 1:1 Langmuir binding model utilizing global fitting algorithms. […] Binding assays for 2E7 using multiple dilutions (from 200 nM down to 3.13 nM) of species' recombinant CD70 ECD proteins in solution were also performed using the same method."}, "[2]": {"target": "T2, mouse CD70 extra-cellular domain (ECD) (Mus musculus, UniProt O55237)", "T2 construct": "human, rat, or mouse CD70 extra-cellular domain (ECD) linked to His tag; His tag; purchased ACRO systems", "T2 sequence (O55237 45-195)": "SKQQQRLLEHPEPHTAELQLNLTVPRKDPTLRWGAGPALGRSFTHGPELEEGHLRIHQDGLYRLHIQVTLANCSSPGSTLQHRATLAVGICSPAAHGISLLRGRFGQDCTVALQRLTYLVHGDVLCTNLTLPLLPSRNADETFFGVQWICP", "assay": "Biolayer interferometry (BLI), mouse CD70", "type": "binding", "details": "for Response: *Response below range of quantification", "method": "as §1"}, "[3]": {"tested_on": "cynomolgus CD70 recombinant protein", "assay": "Antibody binding ELISA, cynomolgus CD70", "details": "full IgG, FIG. 3", "method": "The binding specificity of the CD70 antibodies was tested by ELISA according to a standard protocol. Briefly, 96-well micro-plates were coated with 2 μg/ml of human or cynomolgus CD70 recombinant protein in PBS at 100 μl per well and incubated overnight at 4° C. The plates were washed twice with TBS+0.5% Tween20. 200 μL of blocking buffer (2% BSA in PBS) was added to each well, and the plates were incubated at 37° C. for 2 hours. The plates were washed using the wash buffer mentioned above. Serially diluted antibodies were added to the ELISA plates using 100 μl per well, and the plates were incubated for 1 hour at room temperature. Then plates were washed 3 times. HRP conjugated anti-human Fc antibody solution (Sigma, I18885-2ML, diluted with blocking buffer) was added to the plates using 100 μl per well. The plates were incubated at room temperature for 1 hour and then washed 3 times. Then the TMB solution was added to plates using 100 μl per well and the plates were placed at RT for 5-15 mins. Then the stop solution (2M H2SO4) was added using 50 μl per well. The absorbance was measured at A450 and A630."}, "cyno CD70 ECD": {"tested_on": "cyno CD70 ECD", "assay": "Biolayer interferometry (BLI), cyno CD70", "type": "binding"}, "[4]": {"assay": "Hydrophobic interaction chromatography (HIC)", "type": "physicochemical", "details": "full IgG", "method": "Antibodies were purified from cleared cell culture supernatants using Protein A chromatography (Protein A resin slurry, 4.5 mL, Bogen, Cat #18-0010-02). Briefly, supernatants were prepared for affinity chromatography and loaded onto the columns and allowed to flow completely through the resin. The columns were washed with binding buffer containing 0.15M NaCl and 0.2M PB, PH7.0. Antibody was eluted with elution buffer containing 0.15M NaCl, 0.1M Glycine and 0.2M PB, PH 3.0. Fractions were collected and neutralized by the addition of 1/10 volume of 1M Tris, PH9.0. The fractions were dialyzed for 2 hours against 1×PBS. Purified antibody was quantified by absorbance at A280. Samples from each step of the protein A chromatography were applied onto 12% SDS-PAGE gels for reduced and non-reduced electrophoresis. The hydrophobicity was assessed with hydrophobic interaction chromatography (HIC) on a TSK gel Butyl-NPR, 4.6×100 mm with Butyl-NPR (Tosoh corporation) using a Waters HPLC 2695 system."}, "Raji cells": {"tested_on": "Raji cells", "assay": "Internalization time course, Raji", "type": "cell-based, human", "details": "up to 4 hr, FIG. 13", "method": "Four cell lines ([…]), Caki-1, Raji, MCF-7) were utilized in the internalization assay. Target (CD70) copy numbers were determined via the QIFIKIT (DAKO, K0078). Briefly, cells were labeled with a primary mouse monoclonal antibody against CD70. Cells, Set-up beads, Calibration beads (from the kit) were then labeled in parallel with a fluorescein-conjugated anti-mouse secondary antibody. The fluorescence is correlated with the number of bound primary antibody molecules on the cells and on the beads. Samples were subsequently analyzed on the flow cytometer and copy number determined based on the calibration curve (Table 11). For internalization assay, 3×10^5 cells were incubated at 4° C. for 30 min with 10 µg/ml 2E7 in FACS buffer (1×PBS containing 0.1% BSA). Cells were washed at 4° C. to remove unbound material and kept on ice or shifted to 37° C. for different lengths of time. At progressive timepoints ([…], 0.5, 1, 2, 3, 4 hr) cells were stained with PE-conjugated anti-human Fc for 30 min at 4° C. and analyzed by flow cytometry. Internalization rate were calculated by subtracting the mean fluorescence intensity (MFI) of cell surface-bound antibody at 37° C. at each time point from the MFI of cell surface-bound antibody at 4° C. at time 0, then divided by the MFI of the cell surface-bound antibody at 4° C. at time 0."}, "[5]": {"details": "one concentration (100 nM), Table 9"}}}
{"molecule": "2E7: anti-CD70 antibody clone, VH SEQ 7 and VL SEQ 8; tested as scFv and full human IgG1/kappa (antibody, V domains shown, Synthetic 2E7 VH amino acid sequence; Synthetic 2E7 VL amino acid sequence, tested as scFv and full human IgG1/kappa) VH: QVQLQESGPGLVKPSETLSLTCTVSGGSVSSDYYYWSWIRQPPGKGLEWLGYIYYSGSTNYNPSLKSRVTISVDTSKNQFSLKLRSVTTADTAVYYCARGDGDFLGVCFDYWGQGTLVTVSS VL: EIVLTQSPATLSLSPGERATLSCRASQSVSSYLAWYQQKPGQAPRLLIFDASNRATGIPARFSGSGSGTDFTLTISSLEPEDFAVYYCQQRSNWPLTFGGGTKVEIK", "values": [{"measurement": "Response", "setting": "[1]; RAT CD70 3.13 nM", "result": "*0.0012"}, {"measurement": "Response", "setting": "[1]; RAT CD70 6.25 nM", "result": "*0.0192"}, {"measurement": "Response", "setting": "[1]; RAT CD70 12.5 nM", "result": "*−2.762E−03"}, {"measurement": "Response", "setting": "[1]; RAT CD70 25 nM", "result": "*0.0069"}, {"measurement": "Response", "setting": "[1]; RAT CD70 50 nM", "result": "*0.0126"}, {"measurement": "Response", "setting": "[1]; RAT CD70 100 nM, dilution series", "result": "*0.0271"}, {"measurement": "Response", "setting": "[1]; RAT CD70 200 nM", "result": "*0.0054"}, {"measurement": "ka", "setting": "[1]; RAT CD70, multiple dilutions 200-3.13 nM, global fit, responses below range of quantification", "result": "5.905e+06", "unit": "M⁻¹ s⁻¹"}, {"measurement": "Response", "setting": "[1]; Rat CD70 100 nM, one concentration", "result": "*0.0125"}, {"measurement": "ka", "setting": "[1]; Rat CD70 100 nM, one concentration, response below range of quantification", "result": 4641, "unit": "M⁻¹ s⁻¹"}, {"measurement": "cross-reactivity to rat CD70", "setting": "[1]; multiple dilutions, Table 10", "result": "no cross-reactivity"}, {"measurement": "cross-reactivity to rat CD70", "setting": "[1]; [5]", "result": "no cross-reactivity"}, {"measurement": "Response", "setting": "[2]; MOUSE CD70 3.13 nM", "result": "*−6.014E−03"}, {"measurement": "Response", "setting": "[2]; MOUSE CD70 6.25 nM", "result": "*−5.879E−03"}, {"measurement": "Response", "setting": "[2]; MOUSE CD70 12.5 nM", "result": "*−1.516E−03"}, {"measurement": "Response", "setting": "[2]; MOUSE CD70 25 nM", "result": "*−3.009E−03"}, {"measurement": "Response", "setting": "[2]; MOUSE CD70 50 nM", "result": "*0.0063"}, {"measurement": "Response", "setting": "[2]; MOUSE CD70 100 nM, dilution series", "result": "*0.0111"}, {"measurement": "Response", "setting": "[2]; MOUSE CD70 200 nM", "result": "*0.0012"}, {"measurement": "ka", "setting": "[2]; MOUSE CD70, multiple dilutions 200-3.13 nM, global fit, responses below range of quantification", "result": 117000, "unit": "M⁻¹ s⁻¹"}, {"measurement": "Response", "setting": "[2]; MS CD70 100 nM, one concentration", "result": "*0.0045"}, {"measurement": "ka", "setting": "[2]; MS CD70 100 nM, one concentration, response below range of quantification", "result": 3250, "unit": "M⁻¹ s⁻¹"}, {"measurement": "cross-reactivity to mouse CD70", "setting": "[2]; multiple dilutions, Table 10", "result": "no cross-reactivity"}, {"measurement": "cross-reactivity to mouse CD70", "setting": "[2]; [5]", "result": "no cross-reactivity"}, {"measurement": "cross binding activity to the cyno-antigen", "setting": "[3]", "result": "better cross binding activity to the cyno-antigen than antibody 69A7"}, {"measurement": "Response", "setting": "cyno CD70 ECD; CYNO CD70 3.13 nM", "result": 0.1275}, {"measurement": "Response", "setting": "cyno CD70 ECD; CYNO CD70 6.25 nM", "result": 0.204}, {"measurement": "Response", "setting": "cyno CD70 ECD; CYNO CD70 12.5 nM", "result": 0.2927}, {"measurement": "Response", "setting": "cyno CD70 ECD; CYNO CD70 25 nM", "result": 0.3702}, {"measurement": "Response", "setting": "cyno CD70 ECD; CYNO CD70 50 nM", "result": 0.4136}, {"measurement": "Response", "setting": "cyno CD70 ECD; CYNO CD70 100 nM", "result": 0.4825}, {"measurement": "Response", "setting": "cyno CD70 ECD; CYNO CD70 200 nM", "result": 0.4991}, {"measurement": "ka", "setting": "cyno CD70 ECD; CYNO CD70, multiple dilutions 200-3.13 nM, global fit", "result": 617800, "unit": "M⁻¹ s⁻¹"}, {"measurement": "hydrophobicity compared with the parent antibody 69A7", "setting": "[4]; HIC", "result": "slightly more hydrophobic than the parent antibody 69A7"}, {"measurement": "Retention time", "setting": "[4]; hydrophobicity by HIC", "result": 10.19, "unit": "min"}, {"measurement": "internalization, time course", "setting": "Raji cells", "result": "rapid internalization"}]}
